# Experimental data taken from publication PMC4406585.
# Assays:
# anti-GBB5-A1 scFv = experiment: ELISA; settings: chain shown with the change; biotinylated peptides immobilized in streptavidin-coated microtiter plate wells; soluble scFv protein; parent: est. 100; read off a plot
# anti-GBB5-H9 scFv = experiment: ELISA; settings: chain shown with the change; biotinylated peptides immobilized in streptavidin-coated microtiter plate wells; soluble scFv protein; parent: est. 100; read off a plot
# [1] = target: anti-GBB5-H9 scFv-Fc (human); experiment: SEC; size exclusion chromatography and denaturing SDS-PAGE of the purified scFv-Fc; conditions not given
# anti-GBB5-A1 scFv, sequence (chain, as listed by the source, chain 1 of 2): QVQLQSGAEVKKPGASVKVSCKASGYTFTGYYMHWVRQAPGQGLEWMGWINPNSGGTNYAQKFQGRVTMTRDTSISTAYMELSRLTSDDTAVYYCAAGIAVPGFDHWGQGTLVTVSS
# anti-GBB5-A1 scFv, sequence (chain, as listed by the source, chain 2 of 2): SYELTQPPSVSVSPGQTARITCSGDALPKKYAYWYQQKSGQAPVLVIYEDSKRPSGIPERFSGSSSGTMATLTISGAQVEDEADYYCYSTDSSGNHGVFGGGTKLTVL
Binder,percent of parent (% signal of wild type) (anti-GBB5-A1 scFv),percent of parent (% signal of wild type) (anti-GBB5-H9 scFv),stoichiometry N [1]
GSGSKLHAVELHQVAERV [GBB5 peptide (Guanine Nucleotide-Binding Protein Beta 5) D4A],0.3,1.9,
GSGSALHDVELHQVAERV [GBB5 peptide (Guanine Nucleotide-Binding Protein Beta 5) K1A],0.2,74,
GSGSKLHDVELHQVAEAV [GBB5 peptide (Guanine Nucleotide-Binding Protein Beta 5) R13A],56,1.7,

# The remaining lines, values ahead:
percent of parent (% signal of wild type) (anti-GBB5-A1 scFv),percent of parent (% signal of wild type) (anti-GBB5-H9 scFv),stoichiometry N [1],Binder
51,55,,GSGSKLHDVELHQAAERV [GBB5 peptide (Guanine Nucleotide-Binding Protein Beta 5) V14A]
,,2,anti-GBB5-H9 scFv-Fc (Fc fusion) VH: EVQLVQSGGGLVQPGGSLRLSCAASGFTVSSNYMSWVRQAPGKGLEWVSSISSSSSYIYYADSVKGRFTISRDNAKNSLYLQMNSLRAEDTAVYYCARSYPFDYWGQGTLVTVSS VL: NFMLTQPHSVSESPGKAVTISCTGSSGDVARNYVQWYQQRPGSAPIIVIYEDTQRPSGVPDRFSGSIDSSSNSASLTISGLTTEDEADYYCQSYDGHNVIFGGGTKLTVL
